PMC9054013, “FCHO controls AP2’s initiating role in endocytosis through a PtdIns(4,5)P2-dependent switch” (Science Advances, 2022)
Several values for one entry are separate records, joined by “and”; a condition that tells them apart may be missing. Equal values may be shown once.

B1: FCHO2 linker: FCHO2 interdomain linker wt, residues 314 to 444, GST fusion (protein)
chain: NIPDVDEEGYSIKPETNQNDTKENHFYSSSDSDSEDEEPKKYRIEIKPMHPNNSHHTMASLDELKVSIGNITLSPAISRHSPVQMNRNLSNEELTKSKPSAPPNEKGTSDLLAWDPLFGPSLDSSSSSSLT
modifications: left off: GST, end not stated, kept
notes: FCHO2 interdomain linker wt, residues 314 to 444, GST fusion
B2: FCHO1 linker: FCHO1 interdomain linker wt (N123C), residues 316 to 444, GST fusion (protein)
chain: TCPEVDEEGFTVRPDVTQNSTAEPSRFSSSDSDFDDEEPRKFYVHIKPAPARAPACSPEAAAAQLRATAGSLILPPGPGGTMKRHSSRDAAGKPQRPRSAPRTSSCAERLQSEEQVSKNLFGPPLESAF
modifications: left off: GST, end not stated, kept
notes: FCHO1 interdomain linker wt (N123C), residues 316 to 444, GST fusion

What was measured:
[1] = target: AP2 core; experiment: BLI of AP2 core binding to immobilized GST-FCHO linkers; settings: BLI equilibrium analysis, GST-linker on anti-GST biosensors, 25°C, near-physiological conditions, AP2 core closed
Procedure: Real-time kinetic measurements of AP2 core binding to immobilized GST-FCHO1 linker and GST-FCHO2 linker at 25°C were conducted using an Octet RED96 (Pall FortéBio). AP2 concentrations varied by twofold dilution series (13.5 to 0.8 and 10.0 to 0.2 μM, respectively). Samples and buffers were dispensed into 96-well microtiter plates (Greiner) at a volume of 200 μl per well. Anti-GST biosensors (Pall FortéBio) were incubated in the specific assay buffer for at least 30 min before loading with the appropriate GST-FCHO linker for 5 min, followed by blocking with GST-ARRS control for 10 min. Negative controls were analyzed with biosensors uniquely loaded with the GST-ARRS control. Every binding experiment consisted of three steps: incubation for 10 min in the specific assay buffer, followed by 15 min of incubation with AP2 in the same buffer (association phase), and then by 10 min of incubation with the same buffer without AP2 to measure AP2 off rate (dissociation phase). […]
Data were processed with the Octet Data Acquisition 7.0 software, individually fitted using ForteBio Analysis software 7.0, and subsequently further analyzed with the PRISM software (GraphPad) to determine equilibrium dissociation constants (KD). The maximum binding capacity of each biosensor was scaled with respect to each other, according to the molecular weight of the AP2 analyzed.

[2] = test system: AP2 core; experiment: Liposome spin-downs / GSH Sepharose pull-down of AP2 core with GST-FCHO2 linker; type: biochemical; settings: for increase in steady-state efficiency of AP2 membrane recruitment: GST-FCHO2 vs GST-ARRS control, densitometry, 3 independent experiments
Procedure: GST-FCHO2 WT linker or a nonbinding control (GST-ARRS control) at a final concentration of 30 μM was incubated at 4°C for 30 min with AP2 core at a concentration of 2.5 μM, in 95% HKT buffer with lysozyme (0.2 mg/ml) as a “carrier,” AEBSF (25 μg/ml), and 5 mM DTT. Core buffer (contributed by the purified AP2) was restricted to 5% of the volume. The mixture was then centrifuged briefly to remove any insoluble material. Samples were removed and added to either an equal volume of liposomes [containing phosphatidylcholine (PC)/phosphatidylethanolamine (PE), PC/PE/PS/PtdIns(4,5)P2, or PC/PE/PS/ PtdIns(4,5)P2/TGN38] or an equal bed volume of GSH Sepharose beads prewashed into HKT buffer. Final concentrations were therefore 15 μM (GST-FCHO2/ARRS) and 1.25 μM AP2. The mixtures were incubated for 30 min at 21°C with continuous gentle inversion, then the liposomes were pelleted by centrifugation, supernatants were removed, and the pellets resuspended in an equal volume before the addition of SDS loading dye and analysis by SDS-PAGE. The GSH Sepharose beads were washed three times with 1 ml of HKT supplemented with lysozyme (0.2 mg/ml), AEBSF (25 μg/ml), and 5 mM DTT, then resuspended in the same buffer, and analyzed by SDS-PAGE. All experiments were done in triplicate.

| Molecule | Kd [1] | ratio of FCHO2:AP2 on beads relative to PtdIns(4,5)P2-containing liposomes ([2]; GST-FCHO2 linker 15 μM, AP2 core 1.25 μM, three independent experiments) | increase in steady-state efficiency of AP2 membrane recruitment ([2]; PtdIns(4,5)P2-only liposomes) | increase in steady-state efficiency of AP2 membrane recruitment ([2]; liposomes containing both PtdIns(4,5)P2 and cargo) |
| --- | --- | --- | --- | --- |
| B1 | ~10 µM and 9.8 µM | ~ 20 fold | ~ 13% | ~ 22% |
| B2 | ~10 µM and 8.5 µM | – | – | – |
